This note sets out measurements from patent US20150307621A1 (Kyowa Kirin, published 2015).

The target in test [1] is T1, mouse CD98 (mouse, UniProt P10852 1-526, limits assumed).
T1 construct: also called mCD98
T1 sequence (looked up): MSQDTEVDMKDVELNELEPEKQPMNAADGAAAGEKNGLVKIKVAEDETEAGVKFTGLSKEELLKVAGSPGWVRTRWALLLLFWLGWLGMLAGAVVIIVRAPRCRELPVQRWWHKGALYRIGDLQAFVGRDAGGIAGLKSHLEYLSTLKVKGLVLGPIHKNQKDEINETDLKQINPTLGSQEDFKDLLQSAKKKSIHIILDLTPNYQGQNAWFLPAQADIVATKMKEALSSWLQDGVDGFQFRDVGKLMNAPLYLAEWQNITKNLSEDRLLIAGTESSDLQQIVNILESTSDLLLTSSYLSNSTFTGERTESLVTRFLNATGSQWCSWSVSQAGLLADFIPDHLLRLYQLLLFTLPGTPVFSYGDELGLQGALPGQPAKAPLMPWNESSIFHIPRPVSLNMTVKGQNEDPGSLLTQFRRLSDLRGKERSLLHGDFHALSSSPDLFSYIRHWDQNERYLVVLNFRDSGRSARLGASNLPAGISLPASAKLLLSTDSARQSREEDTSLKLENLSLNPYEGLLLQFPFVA
Briefly: not described at this place.

For test [2], the target named is T2, human LAT1-EGFP on L929 cells (human, UniProt Q01650 1-507).
T2 construct: L929 cells transfected with pEF1/hLAT1-EGFP alone; also called hLAT1-E; hLAT1-EGFP; not shown: EGFP and the short vector-encoded linker (pEGFP-N1) at the C terminus of hLAT1
Briefly: FACS on hLAT1-E-expressing L929 cells.

Test [3] concerns the target T3, human CD98 (human, UniProt P08195 2-529).
T3 construct: also called hCD98; 4F2
T3 sequence: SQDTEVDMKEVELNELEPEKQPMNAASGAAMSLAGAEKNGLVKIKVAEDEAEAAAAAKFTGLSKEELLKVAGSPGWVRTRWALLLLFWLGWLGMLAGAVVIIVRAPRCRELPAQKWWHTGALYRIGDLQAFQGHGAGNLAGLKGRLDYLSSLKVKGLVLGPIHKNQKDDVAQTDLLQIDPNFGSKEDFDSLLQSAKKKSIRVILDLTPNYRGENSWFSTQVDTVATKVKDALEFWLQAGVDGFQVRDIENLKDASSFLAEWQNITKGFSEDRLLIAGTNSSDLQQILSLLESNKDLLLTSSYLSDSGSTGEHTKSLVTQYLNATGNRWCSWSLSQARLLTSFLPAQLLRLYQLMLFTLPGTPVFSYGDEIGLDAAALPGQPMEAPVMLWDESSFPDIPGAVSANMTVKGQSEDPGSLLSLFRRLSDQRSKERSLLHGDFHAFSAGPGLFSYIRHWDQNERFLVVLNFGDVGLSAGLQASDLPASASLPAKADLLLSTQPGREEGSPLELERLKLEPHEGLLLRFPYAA
Briefly: FACS, antibody 5 µg/mL, hCD98-expressing L929 cells. In general terms: A flow cytometer gives signals particle by particle.

For test [4], the target named is T4, CD98 on normal human aortic endothelial cells (HAEC) (human, UniProt P08195 2-529).
T4 sequence: T3 sequence
Briefly: FACS on cultured HAEC, antibody 3.2 ng/mL to 50 µg/mL.

Test [5] has as its target T5, human CD98/human LAT1-EGFP complex on transfected CT26 or L929 cells (human, UniProt P08195 1-529; Q01650 1-507, CD98 and LAT1 are linked by a disulfide bond on the cell membrane).
T5 construct: also called hCD98/hLAT1-E; hCD98/hLAT1; not shown: EGFP and the short vector-encoded linker (pEGFP-N1) fused to the intracellular C terminus of hLAT1
Briefly: FACS, antibody 5 µg/mL, transfected CT26 or L929 cells.

Test [6] has as its target T6, CD98 on human peripheral blood monocytes, PHA-activated T cells and activated B cells (human, UniProt P08195 2-529).
T6 sequence: T3 sequence
Briefly: FACS with FITC-labeled antibody 5 µg/mL on human peripheral blood cells.

Residue numbers refer to the chain shown, from its start.

T2 sequence (Q01650 whole entry): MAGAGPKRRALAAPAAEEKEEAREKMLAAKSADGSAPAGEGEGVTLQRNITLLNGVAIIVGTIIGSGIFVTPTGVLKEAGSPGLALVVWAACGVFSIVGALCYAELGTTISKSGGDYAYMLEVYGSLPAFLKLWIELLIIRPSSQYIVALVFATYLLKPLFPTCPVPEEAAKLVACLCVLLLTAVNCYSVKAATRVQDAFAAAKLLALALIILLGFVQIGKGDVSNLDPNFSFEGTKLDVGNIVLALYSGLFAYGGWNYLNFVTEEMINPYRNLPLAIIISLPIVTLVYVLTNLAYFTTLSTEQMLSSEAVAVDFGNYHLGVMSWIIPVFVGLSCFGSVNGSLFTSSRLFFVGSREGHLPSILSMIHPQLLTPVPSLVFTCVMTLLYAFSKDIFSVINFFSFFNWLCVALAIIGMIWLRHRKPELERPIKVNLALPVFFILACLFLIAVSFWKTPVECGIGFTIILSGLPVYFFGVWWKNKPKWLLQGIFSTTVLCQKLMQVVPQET
T5 sequence (Q01650 whole entry, the tested form may be a part, one chain of several): as the sequence (Q01650 whole entry) above

B1: human anti-CD98 monoclonal antibody K3 (antibody, V domains shown)
VH: EVQLVQSGAEVKKPGESLKISCKGSGYRFTDYWIGWVRQMPGKGLEWMGIFYPGDSDARYSPSFQGQVTISADKSINTAYLQWSSLKASDTAMYYCARRRDIVGGTDYWGQGTLVTVSS
VL: EIVLTQSPATLSLSPGERATLSCRASQSVSSYLDWYQQKPGQAPRLLIYDASSRATGIPARFSGSGSGTDFTLTISSLEPEDFAVYYCQQRSNWITFGQGTRLEIK
notes: Recombinant human IgG1/kappa (variable regions put into the N5KG1-Val Lark vector); The entries begin with the leader peptide; FITC-labelled in some assays; also called 4-32-9; K3IgG1
For the molecule B1, the binding result is “no binding” in test [1]; “no binding (tested: 5 µg/mL)” in test [2]; “binds” in test [3]; “binds” in test [4]; “binds” in test [5]; “binds” in test [6].

B2: human anti-CD98 monoclonal antibody 1-40-1 (antibody, V domains shown)
VH: EVQLVESGGGVVRPGGSLRLSCAASGFTFDDYGMTWVRQAPGKGLEWVSTISWNGGGTGYADSVKGRFTISRDNAKNSLYLQMNSLRAEDTALYYCAGYCIITGCYADYWGQGTLVTVSS
VL: B1 VL with D34A, S53N, I95W, R102K, L103V
notes: Recombinant human IgG1/kappa (N5KG1-Val Lark vector); Entries begin with the leader peptide; also called 1-40-1IgG1
Consider B2, for which the binding result is listed as “no binding” in test [1]; “no binding (tested: 5 µg/mL)” in test [2]; “binds” in test [3]; “binds” in test [4]; “binds” in test [5]; “binds” in test [6].

B3: human anti-CD98 monoclonal antibody 3-69-6 (antibody, V domains shown)
VH: QVQLVQSGAEVKKPGASVKVSCKASGYTFTSYGISWMRQAPGQGLEWMGWISAYNGNTNYVQKFQDRVTMTRDTSTSTAYMELRSLRSDDTAVYYCARDRGSNWYGWFDPWGQGTLVTVSS
VL: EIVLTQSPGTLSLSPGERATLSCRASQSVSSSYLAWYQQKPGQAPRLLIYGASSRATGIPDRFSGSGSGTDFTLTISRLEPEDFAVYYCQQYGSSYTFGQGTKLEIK
notes: Recombinant human IgG1/kappa (N5KG1-Val Lark vector); Entries begin with residues translated from the cloning site (RRPT, RSLT) and the leader peptide; also called 3-69-6IgG1
On to B3, for which the results for the binding result in test [1] and in test [2] were “no binding” and “no binding (tested: 5 µg/mL)”, respectively.

B4: human anti-CD98 monoclonal antibody C2IgG1 (antibody, V domains shown)
VH: QLQLQESGPGLVKPSETLSLTCTVSGGSISSSSYYWGWIRQPPGKGLEWIGSIYYSGSTYYNPSLKSRVTISVDTSKSQFFLKLSSVTAADTAVYYCARQGTGLALFDYWGQGTLVTVSS
VL: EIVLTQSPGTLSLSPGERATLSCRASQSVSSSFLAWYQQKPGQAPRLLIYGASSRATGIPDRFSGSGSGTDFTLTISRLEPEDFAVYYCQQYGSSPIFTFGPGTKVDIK
notes: Recombinant IgG1/kappa form of the C2 hybridoma antibody (hybridoma C2 is IgM); The entries begin with residues translated from the cloning site (STT, RSLT) and the leader peptide; also called 4-35-14
Turning to B4, the binding result in test [1] is “no binding”; in test [2], “no binding (tested: 5 µg/mL)”.
